In the NTF2 design screens of Basanta et al. (2020):

Test: protease stability score; higher = more stable; yeast display proteolysis, trypsin and chymotrypsin;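 also: log10 excess protease needed over predicted unfolded state with 0 meaning unfolded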

| Sequence | protease stability score |
| --- | --- |
| DDDKRKQFEDYMRKFKTGNEEDLVRNMDKDVDVHIGDKTWDGREEAAHELAQHRRHARIEYKSLSVDDKGDKLQVKMQYVDEHNGTPRDSHVVATLRLKNGKIRMIDVKRDG | -0.17 |
| DDDKVRESVNNMLHAMQNGDHDRFRKMADENVRIEVGDKEYKGREKAAEHIKEVVDRVDHIQVESVKVHNGRARANLNMVVNGHSARATLNVNANNGRVVVVEMDPDQIRKAES | -0.629 |
| DDDKVTKVNELLENIKRGNEDDIRDLMDPNARVRIGDKDFHGREEVSDTWKQIRDTAHLSFTDVKNDDQGDHVYVRARFHQTHNGKPDTSVLHLEVTIRNGKIKEAQFHETP | -0.159 |
| DDDLKRKVHKFVEDWKDGDPHRLNHMADEDVRFQVGDKEIHGRKQMHEEVDKEKKEMRRHIDHLELDNQGNTVRVRFELTFTHNGKPFKVDVTIDMEFDGDRLKQAVQRVPREDQTKVKN | -0.209 |
| DDDLRRRLHEFWENMQEGDEKRLREMADPNVRFEVGDKSIHGREEFARKVKELHEQQRFSVRIDRMDNQGNKVDITFHVTQKHNGRPNRYTARVTITAHNGKIKSVSVDISQ | 0.391 |
| DDDLTRKVEKFMRNVQKGNEEELKKMMDPNVHAEVGDKVYHGREDAVEKRVTHYHEQNWRYEDIDLKVEGDRAKAKVVRVVNINGKPIRFEFSVNMRFHNGKITRINNDLPEEVLHKLKR | 0.118 |
| DDDLVRKAKKFYEIVETGDEDKIVKMLDKDAQINVGDRRIDGREDIKTFEHKQVQHMRIEFDSVHASHQGDKVRVRAQMTVDVNGNPITYQAEFVFNVKNGRIKNLEQRVDEKEMKKIKS | 0.007 |
| DDDLVRKLNHMVKVMQNGDPDKIVDQMDPNARLIVGDKNVHGRDEARRFMEKVNKHLRFEIKSVTLHDRPNNANADVDANFHINGRPVRLKYIIVVSVHNGRIKEVQLRLSEDQERKLEK | 0.71 |
| DDDNARELVKRIMKAWQTGDEKELNKNMDPNVRIEVGDKTWHGREDVSKMARELRKQVDSIEVKDVEVQGNHANADVVQVVNGEQKHYLVIIDFHNGKARRLKIEER | 2.11 |
| DDDNFRRFKDLQHAENRGDPDRVMELVDPNAHIRVGNTTLKGTKQIKDWVEHILKNWDEQLHSVDEKFQGNHITARYQMEINVNGEPEHFDVTQMATLDNGKIQNRVVRVSEDDLENIER | -0.247 |
| DDDNKRKAETYMKNLHTGDPDKATEYMDKDAKIQYGDKSVHGRHQWREEIERRRKELRFTVDLHRLHVQGEKFDLKYIEHNNHNGNPKSQSASVTYRMHNGRVHSIQYSYTK | -0.237 |
| DDDNKRVVERFLRAQQEGDPDTAKENADENAHFHYGDRRITGRESYAEWMERRKKESRVEFRIDQMNVSGDRIDVHFQMQVRHNGRPERFEARMVIKITNGHIVQVRVEKKE | 0.207 |
| DDDNLKRQNEDVNRAVQHGDEKKVADMADPNVKVYYGDKEIHGREKVKEWWKRLADRADSFTVVDIELQGEKIRVRVKANIDGKHVDMEFEAHASNGRVKKMHINPDQFRQLRS | 0.445 |
| DDDNVRKMNEMFNALETGDEHKLKKQFDPNAHIRIGDQTYHGMDDYARKFRHKRNNMRQSYESYTITNEGDKVTIEATFSRRHNGTPERKKVVVEVDIRGDQAKSATVQDDR | 0.032 |
| DDDNVRKYVELMHEGDNEQLVRLADPNVRLQVGDKQYDGREDFEHHLRQIHTQADHFQVQDYHFEGDKAVMDVVMTVNGHQFRFKIHVEVRNGEVKQVQWDFTDPNQRDRFRNNLS | 0.611 |
| DDDQARKFVNIVQTGDEDKLLELAPPDVRVKVGDHRVHGRENVKRMVEKLKKSVDHFSIRQIHVHNGRVHVDMDVNVNGQTIRAEYVFVAHNGKLEEISIEVTDETVHDLMTRILS | 0.665 |
| DDDQKRRVEDWWKVLNHGDPDKLRTLADENAKFDVGDKKYHGMTRAADELVRTLREIRLNIRRMEIQVHNGRVVANVDAEVRVNGNPMQIHYTAQMTASNGKITSVQNRIPSEQLKRLRK | 0.165 |
| DDDQLDRNATQMMEALQTGDEQTLNNLVDPDVRFHIGDKVVHGRDQWNEQVKKIRDRADRIHIKHVEAQGDKVRMEFVLNINGRNIRVRMEAEVHNGRFKVITFDPEQVKEMRK | 1.19 |
| DDDQLRKFLEILRSGNEDDMERQADKDARARVGDDHYHGREEVAHMIRNFLHRADHIEVKSVRFTGEKAKVDMHAVVNGQELRLIIEAEVHNGTLKHIVMKVTDEEHKRTLERAMS | 0.29 |
| DDDQNRRFKEMLEVRKTGDEHRLKQLLDPNARLNIGDKRIHGREEIARFMKTKFDESRSEVDVKDVKAHNGRISVTADFRNSSNGQPQRYTATMRATIHNGSFQEIQIDTEK | -0.234 |
| DDDQQRQAEKIVRAIRHGNEQEVDELVDENVRIEYGDKVVHGRSQLRKKMQDEKRHIRQDIKVDTVKEDGDKALIHFKNNFTVNGTPTTNTYSYEVEFTNGRAKELRIRVDPQEVRKQEK | -0.118 |
| DDDQRKDYERFLRWQEENDPRKVAEQADPNARFRYGDKHVQGREEQSRRFDEQRKDARWDLDIKRVNVEGNKITVHFKMQMDRNGKPDSRDATRTIEYDNGRIQRDEVKVSS | -0.231 |
| DDDQRRKAAQRAHELVKTGDPEEIEKLADKHARIQVGDKRVQGREEAKKIMKEFRERVDHIRISDVQVDGDKIKVDVVVVHNGTKKHVVFVFRVHNGKATEISLEDK | 0.027 |
| DDDQRRKFERFITAVRTGSKEDLNKLIDPNAKINVGNHRYHGMEEFAKQVVTHNKDLRFHVRFKELDFSGNRVRVSYEMTMTVNGKPYQFTARVEFDVHDGSVKSVREQISEDVEQRQRN | 0.423 |
| DDDQSRKLKKLFDNNNWDTLQDNADKNANIEVGNKELHGREDAEQLSEKFRDQVDHLTIESIDISGDRVIVTFVVNVNGQRVKYRVVVEAHNGRVKRMRFEFTNPEERKQYDEQLG | 0.899 |

| Sequence | protease stability score |
| --- | --- |
| DDDQVRKYQHWLQEQEKGNEESLMEKMDPNVRIRVGNNEVHGREQAAHDIRKTQQEIRVQIDFKSVDAHNGRFDFKFTAQFEVNGTPFRYSASATVVAHNGHIKRVEIRVDPEVQRKRNK | -0.079 |
| DDDRKARDFWRKFKEVLDKGDSEENDKLVDENAKFEYGDKTLHGREDAMRWNKHLTTRVDHLRMEVEDFKVHNGKIDVQVRLDVNVNGQQRQHDVKLVAEIDGDKVKLHSLTVK | 0.009 |
| DDDRRRQAEEILKIFETGDPQKLRSQFDPNARMHYGDKTIHGMEHAAESMERWQNEMRIELKSYSFRKQGDKVQIDAHFVVHHNGKPDTVKIHIRMELDGDKVREVSVEHTQ | 1.2 |
| DDDRVETVAQELAEAIMENDEDRAREMVDPNARIVYGEKDLHGREAFHTVMQLFQHRVDRVDLETVSVHNGRVKFEAVLKHNGTEHRVVFIVDAHNGKAKQVEVRDQ | 0.862 |
| DDDSQNEFLQRVAEAIVTGDEKSLVRMMDPNARANVGDKQFHGREQMARWARELRERVDHLQVDDLQNHNGRLHMDIQFKDNGKNKHFIIQVEAHNGKVTKMSADEK | 1.36 |
| DDDTDRKVAEDAWRAFEKGDHKRLIELMDKDAEVQVGNRRVSGREKAAHEMVRMVERADHISVKSIDIRGDKATIKFQVNVNGHNQEAKVVFRVQNGRVQEVKFDPTMEKALRT | 1.39 |
| DDDTTAKKAIDDFIENFEHGDPKEADKQADENVRVEYGDKEVDGRHQMAHWLVKLVERVDHVRWHIHEVRMDNGKINVIFENKQKFDGRTEDREFHMTADTRDGRIQLTSVHEK | 0.491 |
| DDDVLRKVERLIEVENEGNEDEARELMDPNAEFQVGDKSVHGREEYASNMKKEQKELKIEIHHVTQSVHNGEADVHLTMRVNDNGRPKEQHYHATFEAHNGRIVYVKKQMRG | -0.099 |
| DDDVMRRLLKWVKNGDWDVLAENADPNVRVNIGDFRVHGREQFKEWADKLHKKVDHFHYRDVKVNGDRVRFDFIEHFNGKTIDMDMTARAHNGRITSLDVNVRSEDDKHAFKELVS | 1.1 |
| DDDVVRKAHSFFRQYQRGNPDHLLKMMDPNARVRYGDKTYQGREDLKEILQHQLDRIRIRVKRMSLRAENGHLNVEVDEVLEHNGEPRRATADVKVTWRNGRIHEMQVVWRG | 0.27 |
| DDEAKDIVEEVVREGDFRQHMRLADEDAKLEYGDKRLHGRERVSDMAQKINERVDHLEVESVSVRGEEVIITLVLNVDGQKFRMKLVMDVQGDKIKSVKLEARTEDNKKLMDRAFS | 0.012 |
| DDEAKDVVDTFMHAVRFGDPDKVDRNIDKDVRLRYGDTEVHGREDAKTYIEDLRDESRVKINEYSATAHNGKADLDADMSFTRNGQPRKRKMKVTAEVHNGHIKELDVQWRP | -0.313 |
| DDEAKEHVEDFIRALKDNNPDEVDEYIDKDAKVHVGDTIYHGREEVRRDVERKKRHLRFDYEDVKIEVHGEKVVAHMKVEYQHNGRPDKARVILDVRFHNGRVRSLHIQEQK | -0.095 |
| DDEALRVYQEVLEAWKHGDEDRLRQLLDPNVSIDVGDKDVHGREDYVTKMVRKARELSFHFEHVHVDHDGDKATIQMVYVIDQNGEPDRTANNVKVDVQNGKIKEIRVSSDR | 0.622 |
| DDEAMKQFRHWVEAYTTGDSQRLRELVDPNATVRVGDKTYTGMEDIAKNIHQQVRRQRFHVELKRVNNQPNRIEVDLDVTFNVNGKPIRIRLRMQAEMHNGRFKYIEVRFDPDEQRKLES | 0.861 |
| DDEANKTAHELVRILQTGDDESFEKMVDPNVKVVIGDRTFKGSSEVRDYLRKRKENIHEDLQVKHVSASGNKAHLDLRFRNDKNGRPQERRLELDVVFHNGKVKNVVYHWDG | 1.39 |
| DDEANRVARHFVKALRKGDPDRLREMVDPNAKVVVGDQSWHGRDSLHHILEREIKEIRISIKDVKFQDQGDKANVEMRVESKHNGQPSESSSSVIVVVRNGRIQEIDMKTSG | 0.291 |
| DDEANTVFREQLHQLEEGNHKEVAKNFDPNVRVSVGDRSIHGSEEVNTRIRRQAHESRIQVDHMSDDNSNGRVTMSADQVVNENGKPSTHRYKLTARVHNGKVKSMVITRDG | -0.575 |
| DDEAQKLAEDYLTALQNNNPDKVIELLDPNARAEYGDKTYHGREQIHHFLRQFHKQARLQFTSYDVEVKNGQARLHMRVQVNHNGEPSQYEASIRISVHNGRMKEVQLQWSN | 1.58 |
| DDEAQRIVHKFVRAMQTNDPDSVEKLLDKNARIEYGDKTIHGNSQAREEVEKTKNQARFQIDSYRVQEEPGRAVLDQKVTFRINGQPDQMRHTLYFDFHNGRVTNLHMHIDEDDYQRHRG | -0.019 |
| DDEAQRVFEDWLENVKKGDEDHAVQLADPNADFVIGDKTYHGREQLKREIKHERDRLRREMRIQDFDDQPPRIDIKFEFTNQHNGKPSSDTAVMKLQMHNGDVQALVVTQHR | -0.302 |
| DDEARKRIRTYWELYNQGNESKLEEMVDKDVRFEVGDKTIEGRRQVSTQLHREVREADVRVDIESIHVTGNKVDVEFRHSRDHNGQPETDQQRAEFNMDNGKIQSVVHRKDG | -0.204 |
| DDEARNLVSEWLKAVETGDPDRVSQNMDPNASYHIGEWNVTGRETVNKLLDDVKTRLRVQFNIQHLDANGDTVDLRAMVLYEHNGKPDTKVYHFKFQQHNGKLVDVRATEDG | 0.736 |
| DDEARRVAETVMTAVSRGDEEKVKEMFDPNARFRVGNKEISGRENYADWLRKLQEHARVDVSDVKAKDQGDEVTAKVRFVLSVDGTPHTMNVDVHFSVDNGKIIDYKQRFDEDDLRRILK | -0.155 |
| DDEAVRAAKRAFEAWIENDPEKMKHQVDENAHLHYGDKEVHGREDANRQVHEDERQMRIELRSVTFQHHNGRAKIDMKYVLDHNGKPETRKFDATAEARNGKITKMSIDVHQ | -0.077 |
